One molecule from patent publication US20210032664, “ENGINEERED MEGANUCLEASES WITH RECOGNITION SEQUENCES FOUND IN THE HUMAN BETA-2 MICROGLOBULIN GENE” (Precision Biosciences, Inc., published 2021) can be followed below.

Holding throughout (test): cell_activity; human T cells, 1 ug mRNA, day 3
Settings in all cases: tags: N-terminal SV40 NLS

For one data set, the target named is T1, B2M 13-14x.93 EQY66 (Artificial Sequence).
T1 chain: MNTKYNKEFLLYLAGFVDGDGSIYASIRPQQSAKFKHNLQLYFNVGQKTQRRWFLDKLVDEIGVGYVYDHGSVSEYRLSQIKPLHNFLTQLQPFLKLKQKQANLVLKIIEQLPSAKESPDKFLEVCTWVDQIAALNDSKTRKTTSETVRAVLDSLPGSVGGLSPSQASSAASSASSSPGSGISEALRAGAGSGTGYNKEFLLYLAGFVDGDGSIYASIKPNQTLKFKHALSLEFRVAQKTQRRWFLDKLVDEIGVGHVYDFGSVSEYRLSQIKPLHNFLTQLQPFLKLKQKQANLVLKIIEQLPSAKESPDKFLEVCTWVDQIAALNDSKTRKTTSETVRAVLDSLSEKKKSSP
On the procedure: (§1) To test these variants of B2M 13-14x.93, donor human T cells were stimulated with anti-CD3 and anti-CD28 antibodies for 3 days, then electroporated with mRNA encoding a given B2M 13-14 meganuclease (1 μg) using the Amaxa 4D-Nucleofector (Lonza) according to the manufacturer's instructions. At 3 days post-electroporation, cells were stained with an antibody recognizing β-2 microglobulin (BD Biosciences) and analyzed by flow cytometry.

In a further data set the target is T2, B2M 13-14x.93 EER66 (Artificial Sequence).
T2 chain: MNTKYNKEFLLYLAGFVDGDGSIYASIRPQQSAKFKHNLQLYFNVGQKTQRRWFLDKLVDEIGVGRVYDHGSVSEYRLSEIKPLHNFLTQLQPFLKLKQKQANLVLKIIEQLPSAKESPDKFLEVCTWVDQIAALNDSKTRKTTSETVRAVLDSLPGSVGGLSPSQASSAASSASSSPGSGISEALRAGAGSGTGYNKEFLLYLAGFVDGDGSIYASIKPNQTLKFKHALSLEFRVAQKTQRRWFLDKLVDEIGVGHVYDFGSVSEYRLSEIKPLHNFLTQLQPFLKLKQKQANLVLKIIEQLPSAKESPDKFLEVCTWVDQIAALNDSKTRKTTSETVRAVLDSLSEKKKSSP
As to the method: as §1

A further data set has as its target T3, B2M 13-14x.93 QQY66 (Artificial Sequence).
T3 chain: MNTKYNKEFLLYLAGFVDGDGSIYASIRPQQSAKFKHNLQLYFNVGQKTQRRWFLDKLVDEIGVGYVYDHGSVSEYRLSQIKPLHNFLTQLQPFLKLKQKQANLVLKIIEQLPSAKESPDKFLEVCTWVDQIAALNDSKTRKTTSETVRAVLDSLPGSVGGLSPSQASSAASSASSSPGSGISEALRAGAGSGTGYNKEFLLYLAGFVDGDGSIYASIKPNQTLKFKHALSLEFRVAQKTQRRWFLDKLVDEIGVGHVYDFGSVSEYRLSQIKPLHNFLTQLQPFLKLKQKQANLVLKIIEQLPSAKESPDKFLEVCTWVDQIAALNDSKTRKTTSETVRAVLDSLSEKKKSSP
As to the method: as §1

The target of a further data set is T4, B2M 13-14x.93 QQK66 (Artificial Sequence).
T4 chain: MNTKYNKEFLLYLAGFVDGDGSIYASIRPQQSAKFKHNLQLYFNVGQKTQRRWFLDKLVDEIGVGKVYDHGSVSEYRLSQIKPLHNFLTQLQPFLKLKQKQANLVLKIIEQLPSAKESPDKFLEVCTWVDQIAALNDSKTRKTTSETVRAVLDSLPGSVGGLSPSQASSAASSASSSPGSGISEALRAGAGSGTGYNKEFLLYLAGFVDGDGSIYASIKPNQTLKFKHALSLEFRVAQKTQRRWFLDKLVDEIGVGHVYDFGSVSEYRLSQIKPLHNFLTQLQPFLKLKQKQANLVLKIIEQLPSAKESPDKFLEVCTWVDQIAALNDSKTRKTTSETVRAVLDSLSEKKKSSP
On the procedure: as §1

The target in another data set is T5, B2M 13-14x.93 QQR66 (Artificial Sequence).
T5 chain: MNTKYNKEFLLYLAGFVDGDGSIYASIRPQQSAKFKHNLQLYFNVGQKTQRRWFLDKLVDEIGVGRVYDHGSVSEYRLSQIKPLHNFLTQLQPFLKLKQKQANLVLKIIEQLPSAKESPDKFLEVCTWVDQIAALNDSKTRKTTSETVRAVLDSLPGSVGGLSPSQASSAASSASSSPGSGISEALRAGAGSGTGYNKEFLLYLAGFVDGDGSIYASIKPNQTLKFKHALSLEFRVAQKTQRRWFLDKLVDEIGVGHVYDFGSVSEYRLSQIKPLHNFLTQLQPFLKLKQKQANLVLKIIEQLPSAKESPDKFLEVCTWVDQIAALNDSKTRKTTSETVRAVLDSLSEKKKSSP
As to the method: as §1

B1: B2M 13-14 recognition sequence (dsDNA)
DNA 1: CTATCTCTTGTACTACACTGAA
DNA 2: TTCAGTGTAGTACAAGAGATAG
On to B1, for which the activity with B2M 13-14x.93 EQY66 was 21.4 % B2M-negative; with B2M 13-14x.93 EER66, 7.07 % B2M-negative; with B2M 13-14x.93 QQY66 it was 19.2 % B2M-negative; in the data set with B2M 13-14x.93 QQK66, 2.64 % B2M-negative; with B2M 13-14x.93 QQR66, 5.05 % B2M-negative.
